Data: paper PMC10786891, “Massively parallel profiling of RNA-targeting CRISPR-Cas13d”

T1: EsCas13d, nuclease-dead (Eubacterium siraeum, UniProt B0MS50, R295A;H300A;R849A;H854A)
T1 sequence: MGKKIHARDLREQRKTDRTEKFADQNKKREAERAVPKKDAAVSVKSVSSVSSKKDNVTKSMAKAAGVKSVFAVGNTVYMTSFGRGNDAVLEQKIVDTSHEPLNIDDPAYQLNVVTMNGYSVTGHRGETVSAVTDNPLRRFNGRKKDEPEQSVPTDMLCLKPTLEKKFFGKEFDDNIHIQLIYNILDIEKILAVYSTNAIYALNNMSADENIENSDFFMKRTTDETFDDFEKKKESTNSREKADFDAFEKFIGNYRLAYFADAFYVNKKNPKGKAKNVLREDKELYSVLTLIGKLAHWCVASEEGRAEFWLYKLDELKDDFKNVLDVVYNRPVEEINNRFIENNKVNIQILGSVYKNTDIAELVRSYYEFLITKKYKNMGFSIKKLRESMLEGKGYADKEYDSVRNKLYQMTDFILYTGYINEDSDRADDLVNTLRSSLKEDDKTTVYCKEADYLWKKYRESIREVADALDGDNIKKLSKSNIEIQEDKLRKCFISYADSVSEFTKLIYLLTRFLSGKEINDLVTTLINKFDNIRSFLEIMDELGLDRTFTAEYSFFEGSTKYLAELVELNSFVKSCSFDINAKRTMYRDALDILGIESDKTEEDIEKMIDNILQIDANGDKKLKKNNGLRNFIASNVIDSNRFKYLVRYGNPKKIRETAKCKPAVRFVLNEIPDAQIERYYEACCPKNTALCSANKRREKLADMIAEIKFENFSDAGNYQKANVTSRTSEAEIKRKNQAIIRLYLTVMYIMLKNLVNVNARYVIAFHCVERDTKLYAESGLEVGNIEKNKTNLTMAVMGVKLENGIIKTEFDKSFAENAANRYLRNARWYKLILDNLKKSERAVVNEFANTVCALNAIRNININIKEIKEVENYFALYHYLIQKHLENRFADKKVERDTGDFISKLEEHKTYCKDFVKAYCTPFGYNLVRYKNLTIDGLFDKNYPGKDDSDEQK

B1: target 1 insA 3' of 15,insC 3' of 12 (mixed)
RNA 1: CACCCGUGCAAAAAUGCAGGGGUCUAAAACUGAGCGGAUAACCUCUCUAUGG
RNA 2: GGGAAUGGAUCCACAUCUACGAAUUCGUACCAUAGAGAAGGCUUAUCCGCUCACCGAGAUCGGAAGAGCACACGU
B2: target 1 insU 3' of 15,insU 3' of 2 (mixed)
RNA 1: CACCCGUGCAAAAAUGCAGGGGUCUAAAACUGAGCGGAUAACCUCUCUAUGG
RNA 2: GGGAAUGGAUCCACAUCUACGAAUUCGUACCAUAGAGUAGGUUAUCCGCUCUACCGAGAUCGGAAGAGCACACGU
B3: target 1 insG 3' of 22,insC 3' of 1 (mixed)
RNA 1: CACCCGUGCAAAAAUGCAGGGGUCUAAAACUGAGCGGAUAACCUCUCUAUGG
RNA 2: GGGAAUGGAUCCACAUCUACGAAUUCGUACGCAUAGAGAGGUUAUCCGCUCACCCGAGAUCGGAAGAGCACACGU
B4: target 1 insC 3' of 22,insU 3' of 1 (mixed)
RNA 1: CACCCGUGCAAAAAUGCAGGGGUCUAAAACUGAGCGGAUAACCUCUCUAUGG
RNA 2: GGGAAUGGAUCCACAUCUACGAAUUCGUACCCAUAGAGAGGUUAUCCGCUCAUCCGAGAUCGGAAGAGCACACGU
B5: target 1 A9C,C22U (mixed)
RNA 1: CACCCGUGCAAAAAUGCAGGGGUCUAAAACUGAGCGGAUAACCUCUCUAUGG
RNA 2: GGGAAUGGAUCCACAUCUACGAAUUCGUAUCAUAGAGAGGUUCUCCGCUCACCGAGAUCGGAAGAGCACACGU
B6: target 1 insU 3' of 9,insG 3' of 1 (mixed)
RNA 1: CACCCGUGCAAAAAUGCAGGGGUCUAAAACUGAGCGGAUAACCUCUCUAUGG
RNA 2: GGGAAUGGAUCCACAUCUACGAAUUCGUACCAUAGAGAGGUUAUUCCGCUCAGCCGAGAUCGGAAGAGCACACGU
B7: target 1 A20U,C22A (mixed)
RNA 1: CACCCGUGCAAAAAUGCAGGGGUCUAAAACUGAGCGGAUAACCUCUCUAUGG
RNA 2: GGGAAUGGAUCCACAUCUACGAAUUCGUAACUUAGAGAGGUUAUCCGCUCACCGAGAUCGGAAGAGCACACGU
B8: target 1 complement block 3-12 (mixed)
RNA 1: CACCCGUGCAAAAAUGCAGGGGUCUAAAACUGAGCGGAUAACCUCUCUAUGG
RNA 2: GGGAAUGGAUCCACAUCUACGAAUUCGUACCAUAGAGAGCAAUAGGCGACACCGAGAUCGGAAGAGCACACGU
B9: target 1 insU 3' of 16,insU 3' of 16 (mixed)
RNA 1: CACCCGUGCAAAAAUGCAGGGGUCUAAAACUGAGCGGAUAACCUCUCUAUGG
RNA 2: GGGAAUGGAUCCACAUCUACGAAUUCGUACCAUAGAUUGAGGUUAUCCGCUCACCGAGAUCGGAAGAGCACACGU
B10: target 1 insG 3' of 16,insU 3' of 9 (mixed)
RNA 1: CACCCGUGCAAAAAUGCAGGGGUCUAAAACUGAGCGGAUAACCUCUCUAUGG
RNA 2: GGGAAUGGAUCCACAUCUACGAAUUCGUACCAUAGAGGAGGUUAUUCCGCUCACCGAGAUCGGAAGAGCACACGU
B11: target 1 insG 3' of 18,insG 3' of 1 (mixed)
RNA 1: CACCCGUGCAAAAAUGCAGGGGUCUAAAACUGAGCGGAUAACCUCUCUAUGG
RNA 2: GGGAAUGGAUCCACAUCUACGAAUUCGUACCAUAGGAGAGGUUAUCCGCUCAGCCGAGAUCGGAAGAGCACACGU
B12: target 1 A1G,U10C (mixed)
RNA 1: CACCCGUGCAAAAAUGCAGGGGUCUAAAACUGAGCGGAUAACCUCUCUAUGG
RNA 2: GGGAAUGGAUCCACAUCUACGAAUUCGUACCAUAGAGAGGUCAUCCGCUCGCCGAGAUCGGAAGAGCACACGU
B13: target 1 insG 3' of 9,insA 3' of 8 (mixed)
RNA 1: CACCCGUGCAAAAAUGCAGGGGUCUAAAACUGAGCGGAUAACCUCUCUAUGG
RNA 2: GGGAAUGGAUCCACAUCUACGAAUUCGUACCAUAGAGAGGUUAGUACCGCUCACCGAGAUCGGAAGAGCACACGU
B14: target 1 insC 3' of 22,insC 3' of 1 (mixed)
RNA 1: CACCCGUGCAAAAAUGCAGGGGUCUAAAACUGAGCGGAUAACCUCUCUAUGG
RNA 2: GGGAAUGGAUCCACAUCUACGAAUUCGUACCCAUAGAGAGGUUAUCCGCUCACCCGAGAUCGGAAGAGCACACGU
B15: target 1 insA 3' of 7,insA 3' of 3 (mixed)
RNA 1: CACCCGUGCAAAAAUGCAGGGGUCUAAAACUGAGCGGAUAACCUCUCUAUGG
RNA 2: GGGAAUGGAUCCACAUCUACGAAUUCGUACCAUAGAGAGGUUAUCACGCUACACCGAGAUCGGAAGAGCACACGU
B16: target 1 insG 3' of 6,insG 3' of 3 (mixed)
RNA 1: CACCCGUGCAAAAAUGCAGGGGUCUAAAACUGAGCGGAUAACCUCUCUAUGG
RNA 2: GGGAAUGGAUCCACAUCUACGAAUUCGUACCAUAGAGAGGUUAUCCGGCUGCACCGAGAUCGGAAGAGCACACGU
B17: target 1 insC 3' of 18,insU 3' of 7 (mixed)
RNA 1: CACCCGUGCAAAAAUGCAGGGGUCUAAAACUGAGCGGAUAACCUCUCUAUGG
RNA 2: GGGAAUGGAUCCACAUCUACGAAUUCGUACCAUACGAGAGGUUAUCUCGCUCACCGAGAUCGGAAGAGCACACGU
B18: target 1 insA 3' of 19,insU 3' of 13 (mixed)
RNA 1: CACCCGUGCAAAAAUGCAGGGGUCUAAAACUGAGCGGAUAACCUCUCUAUGG
RNA 2: GGGAAUGGAUCCACAUCUACGAAUUCGUACCAUAAGAGAGUGUUAUCCGCUCACCGAGAUCGGAAGAGCACACGU
B19: target 1 insC 3' of 22,insG 3' of 1 (mixed)
RNA 1: CACCCGUGCAAAAAUGCAGGGGUCUAAAACUGAGCGGAUAACCUCUCUAUGG
RNA 2: GGGAAUGGAUCCACAUCUACGAAUUCGUACCCAUAGAGAGGUUAUCCGCUCAGCCGAGAUCGGAAGAGCACACGU
B20: target 1 G5A,G17U (mixed)
RNA 1: CACCCGUGCAAAAAUGCAGGGGUCUAAAACUGAGCGGAUAACCUCUCUAUGG
RNA 2: GGGAAUGGAUCCACAUCUACGAAUUCGUACCAUAUAGAGGUUAUCCACUCACCGAGAUCGGAAGAGCACACGU
B21: target 1 insU 3' of 15,insA 3' of 13 (mixed)
RNA 1: CACCCGUGCAAAAAUGCAGGGGUCUAAAACUGAGCGGAUAACCUCUCUAUGG
RNA 2: GGGAAUGGAUCCACAUCUACGAAUUCGUACCAUAGAGUAGAGUUAUCCGCUCACCGAGAUCGGAAGAGCACACGU
B22: target 1 insA 3' of 15,insU 3' of 12 (mixed)
RNA 1: CACCCGUGCAAAAAUGCAGGGGUCUAAAACUGAGCGGAUAACCUCUCUAUGG
RNA 2: GGGAAUGGAUCCACAUCUACGAAUUCGUACCAUAGAGAAGGUUUAUCCGCUCACCGAGAUCGGAAGAGCACACGU
B23: target 1 insG 3' of 18,insC 3' of 1 (mixed)
RNA 1: CACCCGUGCAAAAAUGCAGGGGUCUAAAACUGAGCGGAUAACCUCUCUAUGG
RNA 2: GGGAAUGGAUCCACAUCUACGAAUUCGUACCAUAGGAGAGGUUAUCCGCUCACCCGAGAUCGGAAGAGCACACGU
B24: target 1 insC 3' of 15,insA 3' of 5 (mixed)
RNA 1: CACCCGUGCAAAAAUGCAGGGGUCUAAAACUGAGCGGAUAACCUCUCUAUGG
RNA 2: GGGAAUGGAUCCACAUCUACGAAUUCGUACCAUAGAGCAGGUUAUCCGACUCACCGAGAUCGGAAGAGCACACGU

Molecular target: T1, EsCas13d, nuclease-dead
Assay: crRNA (strand 1, pre-loaded); Mg2+; 40 mM Tris-HCl pH 7.5, 150 mM NaCl, 6 mM MgCl2, 1 mM DTT, 0.1% Tween-20, 0.2 mg/ml BSA; 25 C; 10 min per concentration, then washed
Conditions: tags: His6-TwinStrep-SUMO cleaved; N-terminal SNAP kept (SNAP-Surface 488); label: 3' end held by stalled T7 RNA polymerase

Binder | Kd [nM]
B1 | 31 ± 6
B2 | 11.2 ± 0.6
B3 | 25.6 ± 1.6
B4 | 20.6 ± 1.9
B5 | 54 ± 12
B6 | 18.9 ± 2.5
B7 | 23.9 ± 2.8
B8 | 14.4 ± 0.5
B9 | 38 ± 5
B10 | 28.9 ± 2.2
B11 | 55 ± 10
B12 | 17.3 ± 0.9
B13 | 19.6 ± 1
B14 | 17.2 ± 1
B15 | 5.5 ± 0.4
B16 | 7.3 ± 0.5
B17 | 67 ± 5
B18 | 35 ± 13
B19 | 15.3 ± 1.2
B20 | ~100
B21 | 10.2 ± 0.7
B22 | 4.9 ± 0.4
B23 | 52 ± 4
B24 | 6.6 ± 0.5
